Columns and labels:
[1] = molecular target: T1, 食蟹猴CD38胞外区-His (mfCD38-His) (cynomolgus monkey (Macaca fascicularis), UniProt Q5VAN0 44-301); assay: ELISA, mfCD38-His coated at 1.5 μg/ml, HRP mouse anti-human IgG
T1 construct: Recombinant, expressed in HEK293 cells; not shown: His tag at the C-terminus

人CD38胞外区-His (hCD38-His) = molecular target: T2, 人CD38胞外区-His (hCD38-His) (human (homo sapiens), UniProt P28907 43-300); assay: SPR (Biacore X100), antibody captured by anti-human Fc, human CD38-His as analyte, 25°C
T2 construct: Recombinant, expressed in HEK293 cells; also called 人CD38-His; not shown: His tag at the C-terminus

binding result [1] | Kd (人CD38胞外区-His (hCD38-His)) | Binder
binds | 0.151 nM | S5A10h1Fab+S5B8h2ScFv (bispecific antibody, human IgG1, kappa, Fab-FcK/scFv-FcH knob-into-hole format, three chains) DIVMTQTPLSLPVTPGEPASISCRSSQSLVHSNGNTYLHWYLQKPGQSPQLLIYKVSNRFSGVPDRFSGSGSGTDFTLKISRVEAEDVGVYYCSQSTHVPLTFGQGTKLEIKGGGGSGGGGSGGGGSQVQLVQSGAEVKKPGASVKVSCKASGYAFTNSWMHWVRQAPGQGLEWMGEIHPQSGRTNYNEKFKGRVTMTRDTSTSTVYMELSSLRSEDTAVYYCARDLLQFGNQYYYAMDYWGQGTLVTVSSEPKSSDKTHTCPPCPAPELLGGPSVFLFPPKPKDTLMISRTPEVTCVVVDVSQEDPEVQFNWYVDGVEVHNAKTKPREEQYNSTYRVVSVLTVLHQDWLNGKEYKCKVSNKALPAPIEKTISKAKGQPREPQVCTLPPSQEEMTKNQVSLSCAVKGFYPSDIAVEWESNGQPENNYKTTPPVLDSDGSFFLVSKLTVDKSRWQEGNVFSCSVMHEALHNHYTQKSLSLSPGK heavy: not shown light: DIQMTQSPSSLSASVGDRVTITCRASENIYSYLAWYQQKPGKAPKLLIYNAKTLAEGVPSRFSGSGSGTDFTLTISSLQPEDFATYYCQHHYGTPYTFGQGTKLEIKRTVAAPSVFIFPPSDEQLKSGTASVVCLLNNFYPREAKVQWKVDNALQSGNSQESVTEQDSKDSTYSLSSTLTLSKADYEKHKVYACEVTHQGLSSPVTKSFNRGEC
 | 1.33 nM | S5A10h1 (antibody, V domains shown, Made as a whole antibody of the IgG1 subtype; only variable domains are tied to it; also called 单克隆抗体S5A10h1) VH: QVQLVQSGAEVKKPGSSVKVSCKASDYPFISYTIHWVRQAPGQGLEWMGYINPSNGYTNYNQKFKDRVTITADKSTSTAYMELSSLRSEDTAVYYCARKYGNFYAMDYWGQGTLVTVSS VL: DIQMTQSPSSLSASVGDRVTITCRASENIYSYLAWYQQKPGKAPKLLIYNAKTLAEGVPSRFSGSGSGTDFTLTISSLQPEDFATYYCQHHYGTPYTFGQGTKLEIK
binds | 0.0213 nM | S5B8h2 (antibody, IgG1, V domains shown, Made as a whole antibody of the IgG1 subtype; only variable domains are tied to it; also called 单克隆抗体S5B8h2) VH: QVQLVQSGAEVKKPGASVKVSCKASGYAFTNSWMHWVRQAPGQGLEWMGEIHPQSGRTNYNEKFKGRVTMTRDTSTSTVYMELSSLRSEDTAVYYCARDLLQFGNQYYYAMDYWGQGTLVTVSS VL: DIVMTQTPLSLPVTPGEPASISCRSSQSLVHSNGNTYLHWYLQKPGQSPQLLIYKVSNRFSGVPDRFSGSGSGTDFTLKISRVEAEDVGVYYCSQSTHVPLTFGQGTKLEIK
binds | 0.0216 nM | S5A10h1cross+S5B8h2 (bispecific antibody, human IgG1, kappa, Knob-into-hole plus CrossMab format, four chains) heavy 1: QVQLVQSGAEVKKPGASVKVSCKASGYAFTNSWMHWVRQAPGQGLEWMGEIHPQSGRTNYNEKFKGRVTMTRDTSTSTVYMELSSLRSEDTAVYYCARDLLQFGNQYYYAMDYWGQGTLVTVSSASTKGPSVFPLAPSSKSTSEGTAALGCLVKDYFPEPVTVSWNSGALTSGVHTFPAVLQSSGLYSLSSVVTVPSSSLGTQTYICNVDHKPSNTKVDKTVEPKSCDKTHTCPPCPAPELLGGPSVFLFPPKPKDTLMISRTPEVTCVVVDVSQEDPEVQFNWYVDGVEVHNAKTKPREEQYNSTYRVVSVLTVLHQDWLNGKEYKCKVSNKALPAPIEKTISKAKGQPREPQVCTLPPSQEEMTKNQVSLSCAVKGFYPSDIAVEWESNGQPENNYKTTPPVLDSDGSFFLVSKLTVDKSRWQEGNVFSCSVMHEALHNHYTQKSLSLSPGK light 1: DIVMTQTPLSLPVTPGEPASISCRSSQSLVHSNGNTYLHWYLQKPGQSPQLLIYKVSNRFSGVPDRFSGSGSGTDFTLKISRVEAEDVGVYYCSQSTHVPLTFGQGTKLEIKRTVAAPSVFIFPPSDEQLKSGTASVVCLLNNFYPREAKVQWKVDNALQSGNSQESVTEQDSKDSTYSLSSTLTLSKADYEKHKVYACEVTHQGLSSPVTKSFNRGEC heavy 2: not shown light 2: DIQMTQSPSSLSASVGDRVTITCRASENIYSYLAWYQQKPGKAPKLLIYNAKTLAEGVPSRFSGSGSGTDFTLTISSLQPEDFATYYCQHHYGTPYTFGQGTKLEIKSSASTKGPSVFPLAPSSKSTSGGTAALGCLVKDYFPEPVTVSWNSGALTSGVHTFPAVLQSSGLYSLSSVVTVPSSSLGTQTYICNVNHKPSNTKVDKRVEPKSC

— patent CN116143933A (BEIJING ZHIREN MEIBO BIOTECHNOLOGY CO LTD, dated 2023)
